Experimental data as given in patent US20170067044A1.

Biological target: streptavidin (recombinant, with Ni-affinity tag) (UniProt P22629)
Assay: PLISA on immobilized streptavidin, binding through biotin

Sequence of streptavidin (recombinant, with Ni-affinity tag) (P22629 37-163 limits assumed): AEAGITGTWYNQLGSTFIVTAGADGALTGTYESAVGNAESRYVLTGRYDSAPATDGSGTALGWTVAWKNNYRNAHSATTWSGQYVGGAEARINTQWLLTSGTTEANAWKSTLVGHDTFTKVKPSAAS

biotinylated form of M13LuxABElink-SompbioVII3 (luciferase-encoding M13 phage exposing a biotinylated BirA-substrate polypeptide as part of capsid protein VII) (from UniProt P69533 1-33)
smallest amount of streptavidin detected (pg loaded in the well): 1
